One block for each binder: values may come before it.
What was measured:
[1] = target: human SIRPα on monocyte-derived macrophages (human, UniProt P78324 31-504); assay: cell-based or functional assay
[2] = target: T1, human Claudin 18 splice variant 2 (hCLDN18.2) (human, UniProt P56856-2 1-261); assay: cell-based or functional assay
T1 sequence (looked up): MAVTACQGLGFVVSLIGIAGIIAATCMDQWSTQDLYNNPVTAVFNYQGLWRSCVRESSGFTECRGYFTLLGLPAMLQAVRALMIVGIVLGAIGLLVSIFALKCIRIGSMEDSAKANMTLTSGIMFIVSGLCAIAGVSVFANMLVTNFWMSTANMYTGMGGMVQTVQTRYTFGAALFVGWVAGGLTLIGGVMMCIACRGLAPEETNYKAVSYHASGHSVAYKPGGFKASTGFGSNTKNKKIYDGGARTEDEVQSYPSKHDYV

[3] = target: T1, human Claudin 18 splice variant 2 …; assay: flow cytometry on Expi293 cells stably expressing hCLDN18.2, APC anti-human IgG detection, gMFI
Description: Cells stably expressing hCLDN18.2 were spun down at 1500 rpm at room temperature for 5 minutes and resuspended in 1×PBS/1% BSA (washing buffer), antibodies at a 1:3 series dilution ranging from 100 nM to 24 pM were added, cells were incubated at RT with shaking for 1 hour. […] Three additional washes were performed to get rid of unbound antibodies, treated samples were run on an LSRII flow cytometer (BD Biosciences) and signal intensity was determined using the geometric MFI of APC using Flow Jo software (BD Biosciences). Curve fitting and EC₅₀ values were obtained using GraphPad Prism 6 software.

[4] = target: T2, His6 tagged soluble monomeric extracellular domain (ECD) of hSIRPα v1 (human, UniProt P78324 31-373); assay: SPR (Biacore T200), antibody captured by anti-human Fc on CM5 chip, monomeric antigen as analyte, 1:1 model
T2 construct: extracellular domain; Made by transient transfection in Expi293 cells; used as monomeric analyte in Biacore; also called huSIRPαv1; huSIRPα-v1; not shown: His6 tag
Description: (§1) The experiment is described in Example 8. Antibodies were captured to the CM5 chip surface on which goat anti-human polyclonal antibody (Fc specific) was immobilized. Monomeric huSIRPα-v1 and huSIRPα-v2 were used as analytes and were injected for a 2-minute association period followed by a 5-minute dissociation period. Each concentration was run in duplicates. For human SIRPα v1 the incremental concentrations used are 3.13, 6.25, 12.5, 25, 50, 100, […]; For human SIRPα v2 the incremental concentrations used are 0.78, 1.56, 3.13, 6.25, 12.5, or 25 nM. At the end of each analyte injection, the chip was either regenerated with 10 mM glycine-HC1, pH 1.5 (Panels A-D) for multi-cycle kinetics or not regenerated (Panels E-H) for single-cycle kinetics. Data were evaluated using the Biacore T200 Evaluation Software, version 3.2. Data was double referenced then fit with a 1:1 binding model. Panels A and E indicate the binding of anti-hSIRPα×anti-hCLDN18.2 bispecific antibody to hSIRPα v1, panels B and F indicate the binding of anti-hSIRPα #24 IgG antibody to hSIRPα v1, panels C and G indicate the binding of anti-hSIRPα×anti-hCLDN18.2 bispecific antibody to human SIRPα v2, panels D and H indicate the binding of anti-hSIRPα #24 IgG antibody to human SIRPα v2. The x-axis represents the time (seconds), the y-axis represents the RU (Response Units).
(§2) The His6 tagged soluble monomeric extracellular domain (ECD) of hSIRPα v1 and v2 were made by transient transfection in Expi293 cells. Kinetic analysis was performed using surface plasmon resonance (T200, Cytiva) to compare the binding of the anti-hSIRPα×anti-hCLDN18.2 bispecific antibody (SEQ ID NOs:70 and 74) and the parental anti-hSIRPα #24 IgG antibody (SEQ ID NOs:68 and 74) to antigens hSIRPα v1 and hSIRPα v2 (FIG. 15). Either antibody was captured to the CM5 chip surface (Cytiva) by the immobilized goat-anti-human Fc polyclonal antibody, monomeric antigen hSIRPα v1 or v2 was sequentially injected at 6 different concentrations: huSIRPα v1 at 3.13, 6.25, 12.5, 25, 50, 100 nM while hSIPRα v2 at […] with regeneration by 10 mM Glycine-HCl pH1.5 (FIG. 15, panels A-D) for multi-cycle kinetics or without regeneration (FIG. 15, panels E-H) for single-cycle kinetics.

[5] = target: T3, His6 tagged soluble monomeric extracellular domain (ECD) of hSIRPα v2 (human); assay: as above
T3 construct: extracellular domain; Made by transient transfection in Expi293 cells; used as monomeric analyte in Biacore; also called huSIRPαv2; huSIRPα-v2
Description: as §1, §2

T2 sequence (P78324 31-373): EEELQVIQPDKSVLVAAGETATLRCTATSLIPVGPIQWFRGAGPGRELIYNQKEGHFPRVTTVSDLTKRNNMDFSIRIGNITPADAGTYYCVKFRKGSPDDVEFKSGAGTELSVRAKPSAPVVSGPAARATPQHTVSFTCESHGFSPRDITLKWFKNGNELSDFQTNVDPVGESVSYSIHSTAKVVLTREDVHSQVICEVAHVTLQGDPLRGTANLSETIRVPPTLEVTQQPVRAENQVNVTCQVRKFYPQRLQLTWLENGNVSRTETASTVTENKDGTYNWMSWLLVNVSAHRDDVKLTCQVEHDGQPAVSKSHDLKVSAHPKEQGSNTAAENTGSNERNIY
Chain of human SIRPα on monocyte-derived macrophages (P78324 31-504): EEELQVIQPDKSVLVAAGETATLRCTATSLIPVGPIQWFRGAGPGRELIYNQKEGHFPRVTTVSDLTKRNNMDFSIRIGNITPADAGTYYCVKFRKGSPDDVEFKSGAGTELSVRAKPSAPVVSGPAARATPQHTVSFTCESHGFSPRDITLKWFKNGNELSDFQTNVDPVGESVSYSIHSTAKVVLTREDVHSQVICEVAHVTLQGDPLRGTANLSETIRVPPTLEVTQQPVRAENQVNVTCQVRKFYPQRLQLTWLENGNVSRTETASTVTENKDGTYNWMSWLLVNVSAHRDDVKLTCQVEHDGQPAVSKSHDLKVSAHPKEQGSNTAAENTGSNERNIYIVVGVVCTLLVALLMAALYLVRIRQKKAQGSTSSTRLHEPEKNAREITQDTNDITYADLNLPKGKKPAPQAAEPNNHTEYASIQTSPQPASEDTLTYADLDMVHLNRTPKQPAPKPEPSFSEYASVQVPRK

EC50 [3]: 16.9 nM
Kd [4]: 23.2 nM
koff [4]: 0.00732 s⁻¹
kon [4]: 329000 M⁻¹ s⁻¹
Kd [5]: 0.88 nM
koff [5]: 0.00104 s⁻¹
kon [5]: 1.18e+06 M⁻¹ s⁻¹
B1: anti-hSIRPα×anti-hCLDN18.2 bispecific antibody (bispecific antibody, human IgG1, kappa)
heavy 1: EVQLVESGGGLVKPGGSLRLSCAASGFTFSSYVMSWVRQTPGKGLEWVATISSGGTYTYYPDSVKGRFTLSRDNAKNSLYLQMNSLRAEDTAVYYCASQLTGSEFDYWGQGTTVTVSSASTKGPSVFPLAPSSKSTSGGTAALGCLVKDYFPEPVTVSWNSGALTSGVHTFPAVLQSSGLYSLSSVVTVPSSSLGTQTYICNVNHKPSNTKVDKKVEPKSCDKTHTCPPCPAPELLGGPSVFLFPPKPKDTLMISRTPEVTCVVVDVSHEDPEVKFNWYVDGVEVHNAKTKPREEQYNSTYRVVSVLTVLHQDWLNGKEYKCKVSNKALPAPIEKTISKAKGQPREPQVYTLPPCREEMTKNQVKLTCLVKGFYPSDIAVEWESNGQPENPYKTTPPVLDKDGSFFLYSKLTVDKSRWQQGNVFSCSVMHEALHNHYTQKSLSLSPGK
light 1: DIVLTQSPASLAVSLGERATISCRASESVDLYGTSFMHWYQQKPGQPPKLLIYRASNLESGVPDRFSGSGSRTDFTLTINPLQAEDVATYYCHQSSDELPWTFGGGTKVEIKRTVAAPSVFIFPPSDEQLKSGTASVVCLLNNFYPREAKVQWKVDNALQSGNSQESVTEQDSKDSTYSLSSTLTLSKADYEKHKVYACEVTHQGLSSPVTKSFNRGEC
heavy 2: QVQLVQSGAEVKKPGSSVKVSCKASGYTLTGYWIEWLRQRPGQGLEWMGEILLGSGSIKYNVKFKDRVTITADESTSTAYMELSSLRSEDTAVYYCARKGLRGNSFDYWGQGTLVTVSSASTKGPSVFPLAPSSKSTSGGTAALGCLVDDYFPEPVTVSWNSGALTSGVHTCPACLQSSGLYSLSSVVTVPSSSLGTQTYICNVNHKPSNTKVDKKVEPKSGDKTHTCPPCPAPELLGGPSVFLFPPKPKDTLMISRTPEVTCVVVDVSHEDPEVKFNWYVDGVEVHNAKTKPREEQYNSTYRVVSVLTVLHQDWLNGKEYKCKVSNKALPAPIEKTISKAKGQPREPQVCTLPPSREEMTKNQVDLTCLVDGFYPSDIAVEWESNGQPENDYGTTPPVLDDDGSFFLYSKLTVDKSRWQQGNVFSCSVMHEALHNHYTQKSLSLSPGK
light 2: DIVMTQSPSSLTVSLGEKATISCKSSQSLLNAGNQKSYLTWYQQKPGQPPKRLIYWASTRESGVPDRFSGSGSGTDFTLTISSLQAEDLAVYYCQNDYYYPFTFGQGTKVEIKRTVAAPSVFIFPPSDEQLKSGTAKVVCLLNNFYPREAKVQWKVDNALQSGNSCECVTEQDSKDSTYSLSSTLTLSKADYEKHKVYACEVTHQGLSSPVTKSFNRGES
notes: Four-chain heterodimeric IgG, one Fab arm for each target; made in ExpiCHO cells and purified on protein A; also called anti-hCLDN18.2×hSIRPα bispecific antibody; anti-hSIRPα×hCLDN18.2
EC50, ADCP killing of PaTu 8988s cells by monocyte-derived macrophages [1]: 0.172 nM
EC50, ADCP killing of PaTu 8988s cells by monocyte-derived macrophages [2]: 0.172 nM

EC50 [3]: 4.52 nM
B2: parental anti-hCLDN18.2 59F9E1 IgG1 antibody (antibody, V domains shown)
VH: QVQLVQSGAEVKKPGSSVKVSCKASGYTLTGYWIEWLRQRPGQGLEWMGEILLGSGSIKYNVKFKDRVTITADESTSTAYMELSSLRSEDTAVYYCARKGLRGNSFDYWGQGTLVTVSS
VL: DIVMTQSPSSLTVSLGEKATISCKSSQSLLNSGNQKSYLTWYQQKPGQPPKRLIYWASTRESGVPDRFSGSGSGTDFTLTISSLQAEDLAVYYCQNDYYYPFTFGQGTKVEIKR
notes: Humanized IgG1 with two Fab arms; also called aCLDN18.2; anti-hCLDN18.2 clone 59F9E1 IgG1 (WT)

Kd [4]: 22.3 nM
koff [4]: 0.0077 s⁻¹
kon [4]: 346000 M⁻¹ s⁻¹
Kd [5]: 0.908 nM
koff [5]: 0.00109 s⁻¹
kon [5]: 1.21e+06 M⁻¹ s⁻¹
B3: parental anti-hSIRPα #24 IgG antibody (antibody, V domains shown)
VH: EVQLVESGGGLVKPGGSLRLSCAASGFTFSSYVMSWVRQTPGKGLEWVATISSGGTYTYYPDSVKGRFTLSRDNAKNSLYLQMNSLRAEDTAVYYCASQLTGSEFDYWGQGTTVTVSS
VL: DIVLTQSPASLAVSLGERATISCRASESVDLYGTSFMHWYQQKPGQPPKLLIYRASNLESGVPDRFSGSGSRTDFTLTINPLQAEDVATYYCHQSSDELPWTFGGGTKVEIKR
notes: Bivalent parental IgG; also called anti-SIRPα mAb; anti-hSIRPα clone #24 IgG (WT)

Source: patent US20230116446A1 (QILU PUGET SOUND BIOTHERAPEUTICS, published 2023)
